1 molecule from patent US20200172582A1 (UNIVERSITY OF FLORIDA RESEARCH FOUNDATION, published 2020) can be followed below.

Experiment [1] deals with T1, hFc (human, UniProt P01857-1 104-330 = IgG part, limits assumed).
T1 construct: domain: Fc; Fc-only control in the SlpA bead assay; also called human Fc
Nature of the experiment: flow cytometry of SlpA-coated beads with hFc fusion proteins. As to the method:
(§1) FIGS. 5A-5D. L. acidophilus NCK2187 and its SlpA bind to murine SIGNR3 to induce regulatory signals. A. B6 mice were orally gavaged with 10⁹ CFU NCK56 or NCK2187 and the colonic gene expression of C-type lectin receptors were measured by RT-PCR. Each box represents an individual mouse; n=4. Data represent three individual experiments and are shown as mean±SEM. B. Binding of SlpA to various hFc fusion proteins were analyzed by flow cytometry. Gray tinted line=SlpA-coated beads only; orange=SlpA-coated beads+secondary antibody; green=SlpA-coated beads+control fusion protein; blue=SlpA-coated beads+SIGNR1-hFc; red=SlpA-coated beads+SIGNR3-hFc. Binding assays results were confirmed five independent times. C. […] production by colonic DCs of naïve WT B6 GF or Signr3^{-/-} mice treated with NCK56 (blue) or NCK2187 (green) on days 0, 3, 6, and 9, or left untreated (black), as determined by flow cytometry. D. Frequency of colonic FoxP3⁺ Tregs in KO mice treated with NCK56 or NCK2187 was measured by flow cytometry. n=5 mice/group. Data represent four individual experiments and are shown as mean±SEM. *P<0.05. […]
(§2) C-type lectin receptors, SIGNR1 and SIGNR3, were fused to the Fc part of human IgG1 (SIGNR1-hFc and SIGNR3-hFc) as previously described (Eriksson et al., 2013). […] Binding of SlpA-coated beads (Dynabeads MyOne Carboxylic Acid, Life Technologies) to fusion proteins was analyzed by flow cytometry.

The target in experiment [2] is T2, SIGNR1-hFc (extracellular region of murine SIGNR1 fused to the Fc part of human IgG1) (mouse; human, UniProt Q8CJ91 74-325; P01857 104-330 = IgG part, limits assumed).
T2 construct: extracellular domain;domain: Fc part of human IgG1; Expressed in CHO-S cells
T2 sequence (Q8CJ91 other isoform, or with tags, fused parts or gaps limits assumed): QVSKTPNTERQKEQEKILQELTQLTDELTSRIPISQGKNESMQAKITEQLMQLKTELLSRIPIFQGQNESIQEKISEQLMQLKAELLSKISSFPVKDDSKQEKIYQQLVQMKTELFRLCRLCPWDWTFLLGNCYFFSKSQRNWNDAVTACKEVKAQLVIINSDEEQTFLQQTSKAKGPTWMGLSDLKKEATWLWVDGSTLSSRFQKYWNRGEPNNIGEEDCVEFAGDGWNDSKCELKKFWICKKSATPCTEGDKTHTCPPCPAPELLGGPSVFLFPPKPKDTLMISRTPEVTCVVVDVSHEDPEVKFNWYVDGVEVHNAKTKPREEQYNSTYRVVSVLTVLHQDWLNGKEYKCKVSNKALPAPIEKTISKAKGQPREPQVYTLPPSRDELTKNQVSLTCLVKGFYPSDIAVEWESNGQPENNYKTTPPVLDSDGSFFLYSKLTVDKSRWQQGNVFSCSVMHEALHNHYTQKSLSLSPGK
The description is as above. How it is done:
as §1, §2

B1: Lactobacillus acidophilus surface layer protein A (SlpA), purified from strain NCK2187 (other)
chain: AVSTVSAATTINASSSAINTNTNAKYDVDVTPSVSAVAANTANNTPAIAGNLTGTISASYNGKTYTANLKADTENATITAAGSTTAVKPAELAAGVAYTVTVNDVSFNFGSENAGKTVTLGSANSNVKFTGTNSDNQTETNVSTLKVKLDQNGVASLTNVSIANVYAINTTDNSNVNFYDVTSGATVTNGAVSVNADNQGQVNVANVVAAINSKYFAAQYADKKLNTRTANTEDAIKAALKDQKIDVNSVGYFKAPHTFTVNVKATSNTNGKSATLPVVVTVPNVAEPTVASVSKRIMHNAYYYDKDAKRVGTDSVKRYNSVSVLPNTTTINGKTYYQVVENGKAVDKYINAANIDGTKRTLKHNAYVYASSKKRANKVVLKKGEVVTTYGASYTFKNGQKYYKIGDNTDKTYVKVANFR
notes: Native protein extracted from the surface of L. acidophilus NCK2187 with 5 M LiCl or 5 M NaCl (46 kDa band); In the assays it was coated on carboxylated beads or ELISA plates, blotted, or pulsed onto RAW 264.7 cells; also called L. acidophilus-SlpA; purified SlpA
In the case of B1, the binding result in experiment [1] and in experiment [2] was “no binding” in each case.
